Reference: the supplement of paper PMC7125110
± gives the standard error. Fewer inactive variants are shown than the library holds.

B1: glmS ribozyme (parent)
chain: AUAAAAGCGCCAGAACUACAGAAAUGUAGUUGACGAGGAGGAGGUUUAUCGAAUUUUCGGCGGAUGCCUCCAAA

How the values were obtained:
Settings in all cases: with glucosamine-6-phosphate
[1] = variants of: B1; experiment: self-cleavage kobs at 640 uM GlcN6P; higher = faster cleavage; RNA array
Procedure, shortened: (§1)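 Barcoded ribozyme variants were transcribed in situ on sequenced MiSeq chips by E. coli RNA polymerase. At 37 °C, a hybridised Cy3 probe tracked them while glucosamine-6-phosphate (40 μM to 10 mM) in HEPES/KCl/Mg(OAc)2 buffer flowed in and tiles were imaged over ~14 h. Per-tile medians of signals normalised to baseline and to non-cleaving reference variants were fit to one- or two-exponential decays, giving kobs. kcat and KM came from weighted Michaelis–Menten fits across concentrations.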

[2] = variants of: B1; experiment: self-cleavage kobs at 2500 uM GlcN6P; higher = faster cleavage; RNA array
Procedure, shortened: as §1

[3] = variants of: B1; experiment: self-cleavage kobs at 10000 uM GlcN6P; higher = faster cleavage; RNA array
Procedure, shortened: as §1

Variant	self-cleavage kobs at 640 uM GlcN6P [1] [s⁻¹]	self-cleavage kobs at 2500 uM GlcN6P [2] [s⁻¹]	self-cleavage kobs at 10000 uM GlcN6P [3] [s⁻¹]
C8U A33G G38A G59A C70G	5.19e-05 ± 1.9e-05	–	–
C10A C58U G63A A64U	< 1e-05	< 1e-05	–
C8G U30A G43U	< 1e-05	–	–
C11U A15C G29C G32U C50G	0.000512 ± 0.00014	0.000149 ± 3.9e-05	–
C11G A12U A42G	< 1e-05	< 1e-05	–
G37A G63A C71A	< 1e-05	< 1e-05	–
A36C A48U U54G G60U G63U A64G	< 1e-05	–	–
C34U G38U A42G	< 1e-05	< 1e-05	–
C10U U46A U56C	< 1e-05	< 1e-05	–
C8A C10A C34A	< 1e-05	–	–
A15G G38A G66U	< 1e-05	–	–
C8G U31A A39C G44U	< 1e-05	–	–
C11A C58U G59U G62U C70U	< 1e-05	–	–
C11G C50G C61U	7.22e-05 ± 3.5e-05	6.44e-05 ± 2.1e-05	–
U46G G62C	< 1e-05	–	< 1e-05
A6G A12C U55G	7.46e-05 ± 1.3e-05	0.000177 ± 3.7e-05	–
A15C U46A G60U	< 1e-05	–	–
C34U A36G G62A U69G	0.00111 ± 0.00031	0.000939 ± 0.00035	–
C34A G35U A42C	< 1e-05	–	–
U31G G51A	< 1e-05	–	–
G9U C10A	< 1e-05	< 1e-05	–
C8U A33C G35C U56G U65C	< 1e-05	< 1e-05	–

Variant	self-cleavage kobs at 640 uM GlcN6P [1] [s⁻¹]	self-cleavage kobs at 2500 uM GlcN6P [2] [s⁻¹]	self-cleavage kobs at 10000 uM GlcN6P [3] [s⁻¹]
C16U C61A G63U	< 1e-05	–	–
G32U G41U G60U C68A	< 1e-05	–	–
C50A G60C C68U	4.56e-05 ± 2.1e-05	–	–
A15U C16U A39C	5.94e-05 ± 1.6e-05	–	–
G32U A52C C61U	< 1e-05	–	–
G13U U56A C71U	0.000105 ± 1.6e-05	8.21e-05 ± 2.1e-05	–
A6G A15U G32C U57G G59U	< 1e-05	–	–
C8G C10U G38A U65G C68G	4.45e-05 ± 1.9e-05	–	–
C16U G35U U55A	< 1e-05	–	–
G60U G66A	< 1e-05	< 1e-05	–
G35U A42G A48U	< 1e-05	–	–
A12G U31A	5.56e-05 ± 9.9e-06	7.25e-05 ± 1.1e-05	0.000227 ± 2.4e-05
A14C C50A C61A	4.16e-05 ± 1.7e-05	–	–
G35A A53C G63C	< 1e-05	< 1e-05	–
A6U A12G A39G G63C	< 1e-05	< 1e-05	–
C11G G44A U55A	< 1e-05	< 1e-05	–
G37A A64U C71U	< 1e-05	< 1e-05	–
C10G C16U A52U U54C G66A	< 1e-05	–	–
G7C G43U A64U	< 1e-05	–	–
A6U C16U G43U U65G	< 1e-05	–	–
G40A A48U U56A G59U C68A	< 1e-05	< 1e-05	–
G35A G43C A53U U54A	< 1e-05	< 1e-05	–

Variant	self-cleavage kobs at 640 uM GlcN6P [1] [s⁻¹]	self-cleavage kobs at 2500 uM GlcN6P [2] [s⁻¹]	self-cleavage kobs at 10000 uM GlcN6P [3] [s⁻¹]
A12C G32U A64G C70U	< 1e-05	–	–
C8G G40C	< 1e-05	< 1e-05	< 1e-05
A39G G62U C70U	< 1e-05	< 1e-05	–
G9C A53G U65C	< 1e-05	< 1e-05	–
U30A A39C U47C	4.7e-05 ± 1.3e-05	–	–
G7U C11G A64U	< 1e-05	< 1e-05	< 1e-05
A14G A15G U31G U45G C61G	< 1e-05	< 1e-05	–
A12U A48C G51U C71U	< 1e-05	–	–
G7U A39G A48U	< 1e-05	–	–
C11A A12U C16U C70U	0.00025 ± 7.2e-05	0.000524 ± 0.00013	–
A12U A14C G29C	4.97e-05 ± 2e-05	0.000232 ± 7.7e-05	–
G9U A36C G43U	< 1e-05	< 1e-05	–
U45G C70G	0.000176 ± 7.2e-05	4.73e-05 ± 1.8e-05	0.000258 ± 6.7e-05
A36C G41U A53G	< 1e-05	–	–
C11G A64U	< 1e-05	< 1e-05	–
C16U A48C G62U	< 1e-05	< 1e-05	–
G32A A39C G59A C67A	< 1e-05	< 1e-05	–
C11U C16U A64U C71G	0.0021 ± 0.00087	–	–
U30A C50A C67A C70G	4.38e-05 ± 1.7e-05	–	–
G7U G37A A39C	< 1e-05	< 1e-05	–
A14C G29A G35A G59A	< 1e-05	< 1e-05	–
A14G G37A A52G	5.33e-05 ± 1.3e-05	9.21e-05 ± 2e-05	–
